Reference: patent publication US20100209426A1, “INHIBITORS OF PROGASTRIN-INDUCED REPRESSION OF ICAT FOR TREATING AND/OR PREVENTING COLORECTAL CANCER, ADENOMATOUS POLYPOSIS OR METASTASIS DISPLAYING PROGASTRIN-SECRETING CELLS AND CELLS IN WHICH THE BETA-CATENIN/TCF-MEDIATED TRANSCRIPTIONAL PATHWAY IS CONSTITUTIVELY ACTIVE” (INSERM (INSTITUT NATIONAL DE LA SANTE ET DE LA REC HERCHE …, priority 2006, published 2010)
Where no end group is shown, it is not given here.

Key:
[1] = test system: β-catenin/Tcf-4 transcriptional activity; assay: TOP/FOP Luciferase reporter gene assay in SW480 cells; format: cell-based
Procedure: The protocol used to measure the transcriptional activity of TCF/LEF-1 was described before (Morin et al., 1997). Briefly, cells were transfected with 500 ng of TCF/LEF-1 reporter (pTOP-FLASH), or control vector (pFOP-FLASH) and with 25 ng pCMV-Renilla. Luciferase activity was quantified using the Dual luciferase reporter assay system (Promega), and was normalized relative to the activity of Renilla.

ICAT = ICAT expression in SW480 cells (RT-QPCR, immunoblotting); format: cell-based, human
Procedure: (§1) 2.5 μg of total RNA was pretreated with DNAse RQ1 (Promega) for 30 min at 37° C. and used for reverse transcription with M-MLV reverse transcriptase (In vitrogen). Quantitative PCR was carried out using the LightCycler FastStart DNA MasterPlus SYBR Green I kit (Roche Diagnostics, Meylan, France), under the following conditions: Actin: denaturation during 10 min at 95° C., amplification for 50 cycles: 10 sec at 95° C., 6 sec at 58° C., 11 sec at 72° C. Melting curve: 0 sec at 95° C., 30 sec at 68° C., 0 sec at 95° C. and cooling was for 2 min at 40° C.: c-myc, ILK, chromogranin A and GAPDH amplification: denaturation during 10 min at 95° C., amplification for 50 cycles: 10 sec at 70° C., 6 sec at 58° C., 13 sec at 72° C. The melting curve was 0 sec at 95° C., 30 sec at 80° C., 0 sec at 95° C. and cooling was for 2 min at 40° C. Progastrin, Muc-2, ALP and ICAT amplification: denaturation during 10 min at 95° C., amplification during 50 cycles with: 10 sec at 70° C., 6 sec at 95° C., 11 sec at 72° C. The melting curve was 0 sec at 95° C., 30 sec at 80° C., 0 sec at 70° C. and cooling was for 2 min at 40° C. […]
(§2) Protein lysates, immunoprecipitations and immunoblotting were performed as described before (Hollande et al., 2003) Proteins were visualized using ECL Plus (Amersham Biosciences) and the bands were quantified by densitometry using ImageJ 1.32J (NIH, Bethesda, Md.).

SW480 cells [2] = assay: Differentiation and apoptosis of SW480 cells after transient siRNA transfection; format: cell-based, human
Procedure: The day before transfection, SW480 cells were seeded in 24-well plates (5×10^4 cells/well). Cells were transfected with 100 pmol of rhodamine tagged GAS-specific or β-galactosidase-specific […], and 5 μl/well of Exgen 500 (Euromedex), according to the manufacturer's instructions. 48 hr or 72 hr after transfection, cells were lysed (for immunoblotting and PCR) or fixed in 1% paraformaldehyde for immunostaining.
2.5 μg of total RNA was pretreated with DNAse RQ1 (Promega) for 30 min at 37° C. and used for reverse transcription with M-MLV reverse transcriptase (In vitrogen). Quantitative PCR was carried out using the LightCycler FastStart DNA MasterPlus SYBR Green I kit (Roche Diagnostics, Meylan, France), under the following conditions: Actin: denaturation during 10 min at 95° C., amplification for 50 cycles: 10 sec at 95° C., 6 sec at 58° C., 11 sec at 72° C. Melting curve: 0 sec at 95° C., 30 sec at 68° C., 0 sec at 95° C. and cooling was for 2 min at 40° C.: c-myc, ILK, chromogranin A and GAPDH amplification: denaturation during 10 min at 95° C., amplification for 50 cycles: 10 sec at 70° C., 6 sec at 58° C., 13 sec at 72° C. The melting curve was 0 sec at 95° C., 30 sec at 80° C., 0 sec at 95° C. and cooling was for 2 min at 40° C. Progastrin, Muc-2, ALP and ICAT amplification: denaturation during 10 min at 95° C., amplification during 50 cycles with: 10 sec at 70° C., 6 sec at 95° C., 11 sec at 72° C. The melting curve was 0 sec at 95° C., 30 sec at 80° C., 0 sec at 70° C. and cooling was for 2 min at 40° C. Primers used for amplification of selected genes were: GAPDH-sense: 5′[…]3′ (SEQ ID No 9) antisense: 5′[…]3′ (SEQ ID No 10); Actin-sense: 5′[…]3′ (SEQ ID No 11); antisense: 5′[…]3′ (SEQ ID No 12); ILK-sense: 5′[…]3′ (SEQ ID No 13); antisense: 5′ […]3′ (SEQ ID No 14); ICAT-sense: 5′[…]3′ (SEQ ID No 15); antisense: 5′[…]3′ (SEQ ID No 16); c-myc-sense: 5′[…]3′ (SEQ ID No 17); antisense: 5′[…]3′ (SEQ ID No 18); human progastrin-sense: 5′[…]3′ (SEQ ID No 19); antisense: 5′[…]3′ (SEQ ID No 20); Muc-2-sense: 5′[…]3′ (SEQ ID No 21); antisense: 5′[…]3′ (SEQ ID No 22); Alkaline Phosphatase-sense: 5′[…]3′ (SEQ ID No 23); antisense: 5′[…]3′ (SEQ ID No 24); Chromogranin A-sense: 5′[…]3′ (SEQ ID No 25); antisense: 5′[…]3′ (SEQ ID No 26).
(§3) Immunofluorescent staining was performed as described previously (Hollande et al., 2003) Slides were then observed using a laser scanning LEICA sp2 confocal microscope with a x40 oil immersion lens.

[3] = test system: β-catenin/Tcf-4 and β-catenin/ICAT association; assay: Co-immunoprecipitation of dephosphorylated β-catenin with Tcf-4 and ICAT in SW480 cells; format: cell-based, human; conditions: SW480/GAST(−) cells treated with recombinant progastrin
Procedure: as §2

[4] = test system: Tcf-4 target genes (c-myc, cyclin D1, Sox-9 and claudin-1); assay: Expression of Tcf-4 target genes in SW480/GAST(−) cells; format: cell-based, human; conditions: progastrin-depleted SW480/GAST(−) cells, treatment with the recombinant peptide (5 nM, 72 h)
Procedure: as §1, §2

Akt/PKB = assay: Ser473 phosphorylation of Akt/PKB in SW480 cells (Western blotting); format: cell-based, human; conditions: SW480/GAST(−) cells, 5 nM recombinant progastrin
Procedure: as §2

ILK = ILK expression and immune complex kinase assay in SW480 cells; format: cell-based, human; conditions: SW480/GAST(−) cells, 5 nM recombinant progastrin
Procedure: as §2
The reaction was started by the addition of 25 μl of kinase buffer (50 mM Hepes pH 7.0, 1 mM MnCl2, 1 mM Na orthovanadate, 2 mM NaF, 5 μg Myelin Basic Protein (Sigma)) with 0.5 μg of ATP ([…], 1 μCi[γ-^32P]ATP) per tube, and incubated at 30° C. for 20 min. The reaction was terminated with the addition of 10 μl of 4× sample buffer. The tubes were centrifuged at 10,000 g for 1 min and the proteins were resolved on a 14% SDS-page gel. Phosphorylation of the substrate was visualized by autoradiography (Marotta et al., 2003).

[5] = test system: nuclear compartmentation of β-catenin and Tcf-4; assay: Immunofluorescent staining of β-catenin and Tcf-4 in SW480 cells; format: cell-based, human; conditions: SW480/GAST(−) cells, 5 nM recombinant progastrin
Procedure: as §3

SW480 cells [6] = assay: Tumor formation of SW480 cells injected subcutaneously in BALB/c nude mice; format: in vivo, mouse; conditions: SW480/GAST(−) cells stably expressing shRNA, subcutaneous injection in Balbc/nude mice, within 7 weeks, versus SW480/βgal(−)
Source text: Transfection of gastrin gene antisense and control cDNA into DLD1 cell lines was described in (Hollande et al., 2003). In order to generate progastrin shRNA, the following oligonucleotides were cloned into pSilencer vector (Ambion) and transfected in SW480 cells: sense: 5′-[…] TT-3′ (SEQ ID No 1) and antisense: 5′-[…] 3′ (SEQ ID No 2). β-galactosidase oligonucleotides used to generate control shRNA were: sense: 5′ […] 3′ (SEQ ID No 3); antisense 5′[…] 3′ (SEQ ID No 4). 5×10^4 cells/well were seeded and transfected 24 h later with 500 ng of pSilencer/progastrin-shRNA or pSilencer/β-galactosidase-shRNA, 50 ng of pcDNA-3, and 5 μl/well of Exgen 500 (Euromedex). Selection was performed with Neomycin (500 ng/μl).
In vivo experiments were performed following the French guidelines for experimental animal studies (Direction des Services Vétérinaires, Ministére de l'Agriculture, Agreement N^oB34-172-27) and fulfill the UKCCCR guidelines for the welfare of animals in experimental neoplasia. 2×10^6 cells were injected subcutaneously into 6-weeks-old athymic BALB/c-nu/nu (nude) mice. Tumor growth was followed regularly thereafter (Estimated tumor volume=(Length×width×thickness)/2).

[7] = treatment of CRC cells with short gastrin forms or CCK-B receptor antagonist (FIG. S2)
[8] = transient transfection with siRNA
[9] = amidated and glycine-extended gastrins

Cc1cccc(NC(=O)N[C@@H]2N=C(c3ccccc3)c3ccccc3N(C)C2=O)c1 [L365, 260]
β-catenin/Tcf-4 activity [1, 7]: did not affect

COc1cccc(-c2cc(=O)c3ccccc3o2)c1N [PD98059]
ICAT expression (ICAT; SW480 cells, 1 μM PD98059): did not affect
β-catenin/Tcf-4 activity ([1]; SW480 cells, 1 μM PD98059 (ERK1/2 pathway inhibition)): did not affect

CC(C)(C)n1nc(-c2ccc(Cl)cc2)c2c(N)ncnc21 [PP2]
ICAT expression (ICAT; SW480 cells, 10 μM PP2): did not affect
β-catenin/Tcf-4 activity ([1]; SW480 cells, 10 μM PP2 (Src pathway inhibition)): did not affect

GAST-specific siRNA oligonucleotides: rhodamine-tagged siRNA directed against the human GAST gene; siRNAs hPG sense 5′-GAAGAAGCCUAUGGAUGGATT-3′ (SEQ ID No 27), antisense SEQ ID No 28 (antisense UCCAUCCAUAGGCUUCUUCTT; rhodamine-tagged siRNA, tag position not given here)
caspase-3 activation (SW480 cells [2]; [8]): detection of caspase-3 activation
expression of genes encoding chromogranin A or enterocyte-specific alkaline phosphatase (SW480 cells [2]; [8]): without detectable alterations
expression of the goblet cell-specific gene Muc-2 (SW480 cells [2]; transient transfection with siRNA, versus β-galactosidase siRNA): significant induction

amidated gastrin17: COOH terminally amidated gastrin, maturation product of progastrin (QGPWLEEEEEAYGWMDF-NH2; ends and bridges not checked) [reference compound]
β-catenin/Tcf-4 activity [1, 7]: did not affect
differentiation and apoptosis phenotypes of GAST siRNA-transfected cells (SW480 cells [2]; [9]): had no effect

B1: recombinant progastrin: full-length progastrin (1-80) prohormone encoded by the GAST gene; recombinant peptide or secreted by CRC cells (protein)
chain: SWKPRSQQPDAPLGTGANRDLELPWLEQQGPASHHRRQLGPQGPPHLVADPSKKQGPWLEEEEEAYGWMDFGRRSAEDEN
binding partner of β-catenin (Tcf-4 versus ICAT) [3]: preferentially bound to Tcf-4
ICAT expression (ICAT; SW480/GAST(−) cells, 5 nM recombinant progastrin): De novo repression
expression of Tcf-4 target genes (c-myc, cyclin D1, Sox-9 and claudin-1) [4]: significantly stimulated
β-catenin/Tcf-4 transcriptional activity (TOP/FOP luciferase reporter) ([1]; SW480/GAST(−) clones, 5 nM recombinant progastrin, 72 h): restore a strong level of transcription
serine 473-phosphorylation of Akt/PKB (Akt/PKB): reinstated
differentiation and apoptosis phenotypes of GAST siRNA-transfected cells (SW480 cells [2]; recombinant progastrin for 48 h): reversed
decrease of expression and activity of ILK (ILK): partially reversed
nuclear compartmentation of β-catenin and Tcf-4 [5]: partially restored

B2: glycine-extended gastrin17: glycine-extended gastrin, one of the products of progastrin maturation (peptide)
peptide: B1 chain
β-catenin/Tcf-4 activity [1, 7]: did not affect
differentiation and apoptosis phenotypes of GAST siRNA-transfected cells (SW480 cells [2]; [9]): had no effect

B3: short hairpin RNA (shRNA), directed against the GAST gene: progastrin shRNA, oligonucleotides SEQ ID No 1 and SEQ ID No 2 cloned into pSilencer vector, stably expressed in SW480 cells (nucleic acid)
DNA 1: GAAGAAGCCTATGGATGGATTCAAGAGAAGGTAGGTATCCGAAGAAGTTTTTT
DNA 2: AATTAAAAAACTTCTTCGGATACCTACCTTCTCTTGAATCCATCCATAGGCTTCTTCGGCC
ability to form tumors (SW480 cells [6]): greatly reduced
